Tests used:
[1] = target: T1, TNFRSF25 on lymphocytes in human PBMCs (human, UniProt Q93038 25-417); test: flow cytometry MFI on NK cells of human PBMCs, no stimulation, APC anti-human Fc
T1 construct: whole, on cells; also called TNFRSF25 on CD4+ and CD8+ T cells and NK cells
T1 sequence (looked up): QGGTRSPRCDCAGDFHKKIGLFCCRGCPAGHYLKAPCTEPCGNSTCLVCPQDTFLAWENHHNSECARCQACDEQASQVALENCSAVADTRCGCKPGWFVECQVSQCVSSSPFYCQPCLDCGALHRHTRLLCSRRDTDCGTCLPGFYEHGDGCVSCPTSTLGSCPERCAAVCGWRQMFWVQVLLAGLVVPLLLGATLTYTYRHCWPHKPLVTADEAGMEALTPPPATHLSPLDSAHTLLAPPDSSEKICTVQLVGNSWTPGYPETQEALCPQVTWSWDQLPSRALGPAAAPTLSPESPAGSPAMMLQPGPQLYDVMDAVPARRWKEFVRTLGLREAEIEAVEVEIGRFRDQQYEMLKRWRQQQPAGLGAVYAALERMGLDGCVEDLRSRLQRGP

[2] = target: T2, LTbR; test: flow cytometry on engineered mammalian cells overexpressing LTbR, APC anti-human Fc
T2 construct: member of group m24; also called LTbR overexpressed in engineered mammalian cells

[3] = target: T3, OX40; test: flow cytometry on engineered mammalian cells overexpressing OX40, APC anti-human Fc
T3 construct: member of group m24; also called OX40 overexpressed in engineered mammalian cells
T3 chain: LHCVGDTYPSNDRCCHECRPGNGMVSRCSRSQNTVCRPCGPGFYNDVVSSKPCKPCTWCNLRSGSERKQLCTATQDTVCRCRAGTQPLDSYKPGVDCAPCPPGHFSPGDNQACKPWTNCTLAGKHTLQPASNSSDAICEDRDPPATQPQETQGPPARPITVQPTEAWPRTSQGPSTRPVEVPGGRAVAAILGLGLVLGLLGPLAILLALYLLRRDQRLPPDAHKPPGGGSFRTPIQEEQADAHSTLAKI

[4] = target: T4, 4-1BB; test: flow cytometry on engineered mammalian cells overexpressing 4-1BB, APC anti-human Fc
T4 construct: member of group m24; also called 4-1BB overexpressed in engineered mammalian cells

[5] = target: T1, TNFRSF25 on lymphocytes in human PBMCs; test: flow cytometry MFI on CD4+ T cells of human PBMCs, no stimulation, APC anti-human Fc
[6] = target: T5, biotinylated recombinant human TNFRSF25-His tagged (Acro #TN5-H52H3) (human, UniProt Q93038 25-199, biotinylated); test: MSD competition; TNFRSF25 on plate, antibody titrated, then recombinant TL1A (TL1A-rabbit Fc) as competitor
T5 construct: treated as the same protein; also called recombinant biotin-conjugated human TNFRSF25 protein; DR3
T5 sequence (looked up): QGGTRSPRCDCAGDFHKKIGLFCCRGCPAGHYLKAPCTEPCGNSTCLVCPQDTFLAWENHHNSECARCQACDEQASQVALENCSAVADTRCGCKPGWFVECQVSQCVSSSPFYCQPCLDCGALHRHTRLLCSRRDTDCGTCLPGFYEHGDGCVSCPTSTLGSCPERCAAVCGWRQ
Method: Figure 6: FIG. 6. […] Human TNFRSF25 was precoated on MSD assay plates followed by incubating with various concentrations of anti-TNFRSF25 antibodies.

[7] = target: T1, TNFRSF25 on lymphocytes in human PBMCs; test: flow cytometry MFI on CD4+ T cells of human PBMCs, IL12+IL18 stimulation 24 h, APC anti-human Fc
Method: (§1) Human PBMCs were stimulated with either IL12+IL18 or anti-CD3/CD28 for 24 hours to assess binding of anti-TNFRSF25 to lymphocyte subsets.
(§2) Figure 9: FIG. 9. […] Figure 10: FIG. 10.

[8] = target: T1, TNFRSF25 on lymphocytes in human PBMCs; test: flow cytometry MFI on NK cells of human PBMCs, anti-CD3/CD28 stimulation 24 h, APC anti-human Fc
Method: as §1, §2

T4 sequence (chain, as listed by the source limits assumed): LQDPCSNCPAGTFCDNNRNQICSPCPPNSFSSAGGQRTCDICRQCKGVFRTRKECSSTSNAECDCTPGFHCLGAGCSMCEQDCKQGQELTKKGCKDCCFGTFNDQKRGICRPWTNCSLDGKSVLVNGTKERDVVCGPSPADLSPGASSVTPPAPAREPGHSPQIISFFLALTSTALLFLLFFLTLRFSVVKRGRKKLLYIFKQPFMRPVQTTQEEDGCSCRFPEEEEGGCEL

B1: SL-061 (antibody, human IgG1, kappa)
heavy: QVQLQQSGPGLVKPSQTLSLTCAISGDSVSGYSAAWNWIRQSPSRGLEWLGRTYYRSKWYNDYAVSVKSRITINPDTSKNQFSLQLNSVTPEDTAVYYCARDYYGSESYYNRGYYYYGMDVWGQGTTVTVSSASTKGPSVFPLAPSSKSTSGGTAALGCLVKDYFPEPVTVSWNSGALTSGVHTFPAVLQSSGLYSLSSVVTVPSSSLGTQTYICNVNHKPSNTKVDKKVEPKSCDKTHTCPPCPAPEAAGAPSVFLFPPKPKDTLMISRTPEVTCVVVDVSHEDPEVKFNWYVDGVEVHNAKTKPREEQYNSTYRVVSVLTVLHQDWLNGKEYKCKVSNKALPAPIEKTISKAKGQPREPQVYTLPPSREEMTKNQVSLTCLVKGFYPSDIAVEWESNGQPENNYKTTPPVLDSDGSFFLYSKLTVDKSRWQQGNVFSCSVMHEALHNHYTQKSLSLSPGK
light: AIQLTQSPSSLSASVGDRVTITCRASPGISSALAWYQQKPGKAPKLLMYDESSQESGVPSRFSGSGSGTDFTLTISSLQPEDFATYYCQQFNDYPLTFGGGTKVEIKRTVAAPSVFIFPPSDEQLKSGTASVVCLLNNFYPREAKVQWKVDNALQSGNSQESVTEQDSKDSTYSLSSTLTLSKADYEKHKVYACEVTHQGLSSPVTKSFNRGEC
notes: Same variable regions as SL-033; IgG1 with L234A/L235A+G237A; also called clone 061; SL-061 (L234A/L235A+G237A)
For B1, the EC50 [1] was 0.078 nM, the binding result [2] was “no binding (tested: about 20 nM)” and the binding result [3] was “no binding (tested: about 20 nM)”. The binding result [4] was “no binding (tested: about 20 nM)”, the EC50 [5] was 0.035 nM and the IC50 [6] was 0.056 nM. It also gave an EC50 [7] of 0.035 nM and an EC50 [8] of 0.054 nM.

Source: patent US12319742 (SHATTUCK LABS, dated 2025)
